What was measured:
[1] = substrate: Nc1ncnc2c1ncn2[C@@H]1O[C@H](COP(=O)(O)OP(=O)(O)O)[C@@H](O)[C@H]1O; experiment: Pi release, malachite green assay; assay type: biochemical, Trypanosoma brucei; details: pH 8.0, 37°C, 6 mM MgCl2, 50 mM NaCl, 40 mM Hepes, 10 min
Excerpt: (§1) Pi release, malachite green assay on TbNH2

[2] = substrate: Nc1ncnc2c1ncn2[C@@H]1O[C@H](COP(=O)(O)OP(=O)(O)OP(=O)(O)O)[C@@H](O)[C@H]1O; experiment: Pi release, malachite green assay; assay type: biochemical, Trypanosoma brucei; details: pH 8.0, 37°C, 6 mM MgCl2, 50 mM NaCl, 40 mM Hepes, 10 min
Excerpt: as §1

B1: TbNH2 (Trypanosoma brucei brucei TREU927) (protein)
chain: MYRKNVCVVIFNEDLNFLACQRIHEDKFQFVQGGVEEGDADIIRAAYREVHEEVGLFPEDLRLIGEIMPPSGDPHEFRYILHEGANLRHFGYVGQQQRLFLFYTPSSTIQRVRLVPPKGSVAKQEFSHVEWLPIDEIIERCPKEKQHIFVAVSKVAIPMAKAFLKTRSSI
notes: full-length ORF in pET32 Ek/LIC (N-terminal thioredoxin/His tag), E. coli BL21-CodonPlus (DE3), nickel column
Question: B1 was tested. Which Km [1] did it give?
Answer: 46.5 ± 6.3 µM

Question: What about the Vmax [1] of the same protein?
Answer: 0.0056 µmol/min/mg

Question: What about the kcat/Km [1] of the same protein?
Answer: 270000 M⁻¹ s⁻¹

Question: What about the Km [2] of the same protein?
Answer: 78.1 ± 16.3 µM

Question: And the Vmax [2]?
Answer: 0.0102 µmol/min/mg

Question: And the kcat/Km [2]?
Answer: 290000 M⁻¹ s⁻¹
